Laboratory results taken from the DeepSol protein solubility set.

Assay: soluble on expression in E. coli; label from the status in PepcDB or PDB records

Sequence | soluble on expression in E. coli
GIDIDLQMLGERLLKNKIGSIVAIEPETGEILCMVSSPDFDPRLMIGRQRGKNHLMLQRDPMKPLLNRSIMGVYPPGSTFKTAQALTFLQEGIIQTNTPAFPCAHGFNYGSLHVGCHAHGSPLPLIPAIATSCNSYFCWGLFRMFGDRKYGSSQNAITVWKDHMVSQGFGYKLGVDLPGEKRGLIPNAQFYDKAYRGRWNGLTVISIAIGQGEILATPLQIANLGATIANRGHFITPHIVKEIQDEQLDSLYRVPRKTSIDRKHYEDVVTGMRAAVTGGTCRVAGAILPDVEVCGKTGTAQNRGHDHSVFMGFAPMNNPKIAIAVYVENGGFGAVYGVPIGALMMEQYLKGKLSPEN | not soluble
MGPMPKLADRKLCADQECSHPISMAVALQDYMAPDCRFLTIHRGQVVYVFSKLKGRGRLFWGGSVQGDYYGDLAARLGYFPSSIVREDQTLKPGKVDVKTDKWDFYCQ | soluble
MSLRGIRLQQPAGLASLSSVALPDPGQPAAGQIRVRLHASSLNFHDLGIVSGQMPTADGRIPMSDGAGVVEAVGEAVSDFAVGDHVVSTFFPQWLDGEPLHAGFATTPGDGVDGYARSAVVAAAQAFTHAPRGYSHAEAATLTTAGVTAWRALVVNGRIKAGDTVLVLGTGGVSIFALQFAKAMGAMVIVTSSSDQKLETARTLGADHCINYRQHTEWAAQVLEITNGRGVDHVVEVGGPGTLAQSIKAARVGGHIALIGVLTGAAGPVPTAEMMGRQQRLQGLVVGSRRHQQELVRALDGLPLRPVIDRSFALEDIAEAFALQHAGGHLGKIVLEFEGHHHHHH | soluble
MSSQKVFGITGPVSTVGATAAENKLNDSLIQELKKEGSFETEQETANRVQVLKILQELAQRFVYEVSKKKNMSDGMARDAGGKIFTYGSYRLGVHGPGSDIDTLVVVPKHVTREDFFTVFDSLLRERKELDEIAPVPDAFVPIIKIKFSGISIDLICARLDQPQVPLSLTLSDKNLLRNLDEKDLRALNGTRVTDEILELVPKPNVFRIALRAIKLWAQRRAVYANIFGFPGGVAWAMLVARICQLYPNACSAVILNRFFIILSEWNWPQPVILKPIEDGPLQVRVWNPKIYAQDRSHRMPVITPAYPSMCATHNITESTKKVILQEFVRGVQITNDIFSNKKSWANLFEKNDFFFRYKFYLEITAYTRGSDEQHLKWSGLVESKVRLLVMKLEVLAGIKIAHPFTKPFESSYCCPTEDDYEMIQDKYGSHKTETALNALKLVTDENKEEESIKDAPKAYLSTMYIGLDFNIENKKEKVDIHIPCTEFVNLCRSFNEDYGDHKVFNLALRFVKGYDLPDEVFDENEKRPSKKSKRKNLLEHHHHHH | soluble
MSLSLLLSILCMTQAKDRIVERPPFLAQSSSSIEIDKIVMSDTVTTVYIKAFYRPKYWIKIATGSVLKDNNGNLYPVRKGIGITLDKEFWMPESGEAEFQLTFPPIPQNVTCLDFSEGDFEGAYKIWGIQLDKKTFSKFKLPKDVTVTKADHKTTLPEPVVKYAKAILKGRILDYQKGMPNKGSLYFQDVIRDEAQEGKIRIQDDGTFYHEMNVFMVTPCMIRFPFGAVSYLLAPGETTSVVINLRENARKQSHLRQAEKPYGKEIYYGGYLAGVQQELADHPMSFSFTEGNSYEEYQQQIKKLNGKTAEEYKAQILARLPEFRKQITQSKGSPAYKEIINTDLELSAALKIIETERNLKLVHIMTNGLEGEKANKYYAETKIDIPQGYYESLQDFTYILSPKACYNSRYPILFDIIRRIGIDDKILKSLSNHTAASYLIQNPKAQMIGVSMRDLNPLNDKQKAELSTMPAAYNDMALAMNNDLLKQIEINKKKTGFTVNETGEVSNEDLFPSIISKFRGHTLLVDFWATWCGPCRSANKQILPMKEELKDKDIIYLYITGETSPLGTWKNMIPDIHGEHFRVTDEQWSYLREKFSIRGVPTYFVIDKEGNITYKQTGFPGVDTMKEQLMKALEKEGHHHHHH | soluble
LGTQMGIQTPIRIEAFDNSNIQGVDPVSAMVTFVDGKPDKKNYRKYKIKTVKGPDDYKSMREVVRRRYSRVLNEGLPLPDLIIVDGGKGHMNGVIDVLQNELGLDIPVAGLQKNDKHQTSELLYGASAEIVPLKKNSQAFYLLHRIQDEVHRFAI | not soluble
MAHHHHHHMRSLPNIIVTGVPGVGKTTLCEELVEVINKELQEGQQAEPANQMKHLNLSKVIKEERLYEEFDDQLDATIYSNDMVNEKMEKLKLENGGYIIDFHDVDFLEQKELIDHIFLLTTSTNKLYERLEKRNYAKEKIKNNIECEIFQVIKEDILTFYNDPSIFDELGNNDMEQYESNLQLIKGWVLSWAKSGEALPR | soluble
MDPSLLRERELFKKRALSTPVVEKRSASSESSSSSSKKKKTKVEHGGSSGSKQNSDHSNGSFNLKALSGSSGYKFGVLAKIVNYMKTRHQRGDTHPLTLDEILDETQHLDIGLKQKQWLMTEALVNNPKIEVIDGKYAFKPKYNVRDKKALLRLLDQHDQRGLGGILLEDIEEALPNSQKAVKALGDQILFVNRPDKKKILFFNDKSCQFSVDEEFQKLWRSVTVDSMDEEKIEEYLKRQGISSMQESGPKKVAPIQRRKKPASQKKRRFKTHNEHLAGVLKDYSDITSSK | not soluble
MLEDLIGKAYLESAEDRRRGDRSEEVEAIRKYIRSARRTVVPNWNAEKVDAINDVLRSFNLREAEHLQFNTNWADLTRMPAVTKALMALDISGADLVIARGRLGVPGSGSLLVIMDSRGRLLSAAMSPPHVIHSMEVREAVRSEMTHALERIGFKR | soluble
FPTPKPVPAPQQAAQQQAVTASAEAALAPATPITVTTDTVQAVIDEKSGDLRRLTLLKYKATGDENKPFILFGDGKEYTYVAQSELLDAQGNNILKGIGFSAPKKQYSLEGDKVEVRLSAPETRGLKIDKVYTFTKGSYLVNVRFDIANGSGQTANLSADYRIVRDHSEPEGQGYFTHSYVGPVVYTPEGNFQKVSFSDLDDDAKSGKSEAEYIRKTPTGWLGMIEHHFMSTWILQPKGRQSVCAAGECNIDIKRRNDKLYSTSVSVPLAAIQNGAKAEASINLYAGPQTTSVIANIADNLQLAKDYGKVHWFASPLFWLLNQLHNIIGN | not soluble
MNLGFRVTGKFVRELLDVLDEIAEEIRQEEKEKYPYTEWERKREVVKERLRKLPEYVREAISVITVQKRVGRPKKVDLEKRVMLFLFARLMDKSNRDIEELLELFEPLFGIKVSYKTIERLYSDEEVRMALHNLFILLLREEGVSGDFSGDGTGYSLTITKHYRSNPKRKGKDFRYVFRIIDIDTGMYVGFGYSDRSEKDAFEKALGMLKSMGVKVNSISLDKYYSSRKTLRLFDAETAVYVIPKRNLARIGFDWLRVIERIVEAPYRFLKRYFKRNLSEAGFSADKRRFGWLIRQRREDRREMALFAVGLWHNVFAVRVVR | not soluble
MSVKPVDLNKLRSTHENLYETVVAISKKAREIQEEERAELEERLLPYKEMIRNPASESESEKVFPEQIAISVAFECREKPTQQALAQYLDHQYDYVLEKSPETKVAQNEDEDESDRD | not soluble
MSNPYPKQEVTLMLHTANPVIKHKAGLLNLAEELSNVSKACKIMGVSRDTFYRYRELVAEGGVDAQINRSRRAPNLKNRTDEATEQAVVDYAVAFPTHGQHRASNELRKQGVFISDSGVRSVWLLHNLENLKRRYLEHHHHHH | not soluble
MGHHHHHHSHMPVTEKDLAEDAPWKKIQQNTFTRWCNEHLKCVNKRIGNLQTDLSDGLRLIALLEVLSQKRMYRKYHQRPTFRQMQLENVSVALEFLDRESIKLVSIDSKAIVDGNLKLILGLVWTLILHYSISMPVWEDEGDDDAKKQTPKQRLLGWIQNKIPYLPITNFNQNWQDGKALGALVDSCAPGLCPDWESWDPQKPVDNAREAMQQADDWLGVPQVITPEEIIHPDVDEHSVMTYLSQFPKAKLKPGAPLKPKL | soluble
MGSDKIHHHHHHVFDALVIGSGPAGLAIAAELAQRGLKVQGLSPVDPFHPWENTYGIWGPELDSLGLEHLFGHRWSNCVSYFGEAPVQHQYNYGLFDRAQLQQHWLRQCEQGGLQWQLGKAAAIAHDSHHSCVTTAAGQELQARLVVDTTGHQAAFIQRPHSDAIAYQAAYGIIGQFSQPPIEPHQFVLMDYRSDHLSPEERQLPPTFLYAMDLGNDVYFVEETSLAACPAIPYDRLKQRLYQRLATRGVTVQVIQHEEYCLFPMNLPLPDLTQSVVGFGGAASMVHPASGYMVGALLRRAPDLANAIAAGLNASSSLTTAELATQAWRGLWPTEKIRKHYIYQFGLEKLMRFSEAQLNHHFQTFFGLPKEQWYGFLTNTLSLPELIQAMLRLFAQAPNDVRWGLMEQQGRELQLFWQAIAAR | not soluble
MAAECATQRAPGSVVELLGKSYPQDDHSNLTRKVLTRVGRNLHNQQHHPLWLIKERVKEHFYKQYVGRFGTPLFSVYDNLSPVVTTWQNFDSLLIPADHPSRKKGDNYYLNRTHMLRAHTSAHQWDLLHAGLDAFLVVGDVYRRDQIDSQHYPIFHQLEAVRLFSKHELFAGIKDGESLQLFEQSSRSAHKQETHTMEAVKLVEFDLKQTLTRLMAHLFGDELEIRWVDCYFPFTHPSFEMEINFHGEWLEVLGCGVMEQQLVNSAGAQDRIGWAFGLGLERLAMILYDIPDIRLFWCEDERFLKQFCVSNINQKVKFQPLSKYPAVINDISFWLPSENYAENDFYDLVRTIGGDLVEKVDLIDKFVHPKTHKTSHCYRITYRHMERTLSQREVRHIHQALQEAAVQLLGVEGRF | soluble
MGSDKIHHHHHHMSMPSIDIEPTPRTLRTLALFDLDHTLLDVDSDYLWGEYIVKHNLVDEAQYRTANQKFYNDYIEGRLDATEYNEFVAQFLSSLPMGRLHELREDYIKSEIEPHIRPKAMEVLCQHVEEGHDVVIISATNDFVVSAIAKRFGIEDGNVLSTPLEIKDKRYTGKLTDKPNFKEGKIYHLDKWIGKQQLAGIHFNKTYAYSDSKNDIPLLEWADVAICVSPDAALHAHALSHRWAVEDWSI | not soluble
MGQAPDRPHLETFLARLRAGAKILELGCGGGQDSEYMLSAGFDVHPTDGTPDIAKAAQARLGIPVRTLLFENIEDAALYDAVWANACLLHVPRLALPGIIGRIHTALKPGGVFYASFKAGEVEGRDTFGRYYNYPSKAWLEETYGQFAWTEVEIEARQGSGYDKLPTDWLHVTATKALEHHHHHH | not soluble
MFSPVKSTKVYEQIIEQFKIMIANGTLKKGDKLPSERELVSQLGVSRASIREALSALQMIGFVEARHGEGNFIRENFEESLIDPFLLIFMLNGSNKEQILELRRIIEVETAALAAKKITDEEVKELEVCLENLTEAENETLKGKYDKKFHYNIAKASKNILIVNMLNAVSSLMDSFISEARGRILMVEDNKNVLMKQHRSMLEALKNHDSKAASNAMSEHLDLIYEYIIKK | not soluble
MNKVAQYYRELVASLNERLRNGERDIDALVEQARERVIKTGELTRTEIDELTRAVRRDLEEFAMSYEESLKEESDSVFMRVIKESLWQELADITDKTQLEWREIFQDLNHHGVYHSGEVVGLGNLVCEKCHFHLPIYTPEVLTLCPKCGYDQFQRRPFEP | not soluble
